In the emibetuzumab library of Makowski et al. (2022):

B1: VH:VL chains; a variant is named by its letters at X, in order (parent)
chain 1: QVQLVQSGAEVKKPGASVKVSCKASGYTFTDYXMHWVRQAPGQGLEWMGXVNPNXXXTTYNQKFEGRVTMTTDTSTSTAYMELRSLRSDDTAVYYCARXNXLDXWGQGTTVTVSS
chain 2: DIQMTQSPSSLSASVGDRVTITCSVSSSVSSIYLHWYQQKPGKAPKLLIYSTSNLASGVPSRFSGSGSGTDFTLTISSLQPEDFATYYCQVYSGYPLTFGGGTKVEIK

Variants of: B1
Experiment: yeast display scFab, FACS + sequencing
Procedure, shortened: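 For the non-specific binding call, a heavy-chain CDR mutant scFab library on the yeast surface was FACS-sorted and samples from two replicates were deep sequenced. Cells were labelled with anti-Myc and either biotinylated ovalbumin (260 μg/mL in PBSB, 3 h, room temperature) or soluble membrane proteins (130 μg/mL, 20 min on ice), with gates on the top 25% and bottom 10% of binders. With membrane protein and ovalbumin samples pooled, a sequence in ≥3 of 4 positive samples and no negatives was scored positive, and the converse rule scored negatives.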

Variant	non-specific binding call
DREGGVSD	binds
FRERGALA	binds
YRERSSVA	binds
DREEGSGD	no binding
VRERGDLV	no binding
YRARSALD	binds
YRGAASAV	binds
VRERGAGS	binds
YRARGSWS	binds
YRARGSWD	binds
YRATDFVV	binds
YRGAASSD	binds
YRARSSSD	binds
FRGADSGF chain 1 R98K	binds
YRARSAWV	binds
YRARSAWA	binds
YRARSAWS	binds
YRERGALS	binds
YRERGALA	binds
YRGEAFLY	binds
FREGASWD	binds
YRERAAGY	binds
YRARGVGV	binds
YRARGVGA	binds
FRARGSWV	binds

Variant	non-specific binding call
YRGESSGF	binds
DREEGSWV	no binding
YRERDSAD	binds
AREEGFSV	no binding
DRERGDGY	no binding
DREEGFSV	no binding
YRARSAAV	binds
YRARSAAD	binds
FRARSSGF	binds
YRARSSAD	binds
YRARSSAA	binds
VRERGSSF	no binding
DREEGVGV	no binding
ARGAGYGS	binds
SREAADGV	no binding
YRARGSSS	binds
YREKGSLD	binds
VRGEGSWD	binds
SREGGVVV	binds
VRGAGSWV	binds
YRARGSLF	binds
YRERGAAD	binds
YRERGAAV	binds
YRERGAAF	binds
YRERGAAA	binds

Variant	non-specific binding call
YREGGSVD	no binding
AREGDDVA	no binding
FRERGDGA	binds
FRGEGFSV	binds
FRGESAAA	binds
YRARSSVA	binds
YRARSSVV	binds
VREGSSAA	binds
DREEGSSA	no binding
DREEGSSY	no binding
YREKGSSA	binds
YREKGSSV	binds
YRARSFGS	binds
YRARSFGD	binds
YRERGSAV	binds
YRERGSAA	binds
YRERGSAD	binds
YREGGFVA	binds
YRGASSWV	binds
YREEGDVF	no binding
VRERGSWD	binds
VRERGSWV	binds
FREGSAVA	binds
YREGGSGV	binds
YRGAGYAA	binds

Variant	non-specific binding call
YREKDSAD	no binding
YREGGAGV	binds
AREGDAGD	no binding
YRGAGFVD	binds
VRERGAWD	binds
YRGAGSGV	binds
YRGAGSGD	binds
YRGAGSGS	binds
YRGAGSGY	binds
ARARGSWV	binds
YRERSSLD	binds
YRGEGASD	binds
YREETSGA	binds
YRARSSWD	binds
YRARSSWS	binds
FRGEGAVS	binds
SREAADWV	no binding
SREAADWA	no binding
FRGESSWD	binds
YRARSASV	binds
YRARSASA	binds
YRGAGSVD	binds
DREGDDAV	no binding
FREGGAVS	binds
SREGGFAA	binds

Variant	non-specific binding call
VRGAGAWV	binds
YRGAGSLD	binds
YRGGAAAA	binds
SREAASGV	no binding
YRARSAVY	binds
YRARSAVA	binds
YRARSAVD	binds
YRARSAVV	binds
YRERGAWV	binds
YRGEGAWV	binds
DREEGDGS	no binding
DREEGDGV	no binding
YRGAGSAD	binds
SREAAAVY	no binding
YRGADFGF	binds
VRERGDGV	no binding
VRERGDGS	no binding
YRGESAVD	binds
VRERGDAA	no binding
VRERGDAS	binds
VRATGSVY	binds
FREGGSGD	binds
YRGASSGF	binds
VREGAAAV	no binding
YRGAGYGS	binds

Variant	non-specific binding call
YRERSDVS	binds
YRARSSGA	binds
YRARSSGV	binds
FRGESAGA	binds
FRGESAGS	binds
FRGESAGV	binds
FRETDFGA	binds
YREGGDGA	no binding
YRGEGAVS	binds
FRERGAAA	binds
FREEGFSV	no binding
DREEGDAV	no binding
DREGDAVA	no binding
YRGAGAWV	binds
YRGAGAWS	binds
YRGAGAWA	binds
SRATAYSD	binds
YRERGSSF	binds
YRARGVVV	binds
YRGEGDAV	no binding
YRGEGDAA	no binding
VREAADSF	no binding
YRGEGSAS	binds
DRGEGAGD chain 1 G42D	no binding
YRARSAGF chain 1 G108D	binds

Variant	non-specific binding call
FRERGSWV	binds
YREKAAWA	binds
FREGSASV	binds
VRERGASD	binds
FREKGDLA	no binding
AREKGSAA	binds
ARGEGSGV	no binding
YRARGSVF	binds
YRARGSVS	binds
YRARGYVY	binds
FRATSAVD	binds
DREEGDVV	no binding
YRGASAAA	binds
YREGDASD	no binding
FRGEGAAD	binds
FRGEGALV	binds
FREKDSAD	no binding
VREEGDGA	no binding
VRATGYWA	binds
YREKGSAA	binds
YRGAGAAA	binds
YRGAGAAD	binds
VRARGSSF	binds
DREEGAVY	no binding
DREEGAVV	no binding

Variant	non-specific binding call
DREEGAVA	no binding
FRGESSGA	binds
YRERGSWV	binds
FRERGAGD	binds
FRERGAGY	binds
YRERNAAA	binds
YRERGAVV	binds
YRGESAWV	binds
SREEGFSV	no binding
YREEGDGV	no binding
ARERGDGY	no binding
FRERNAAA	binds
SRGANAWD	binds
FRGEGSVS	binds
VRERGDWF	no binding
VRERGDWV	no binding
YRGANSGA	binds
FRERGSAV	binds
FRERGSAD	binds
FRGAGSVD	binds
FRGAGSVA	binds
VRARGVVA	binds
DREGDYLY	no binding
YRGAGALV	binds
DRARTFVA	binds

Variant	non-specific binding call
YRGAGAVS	binds
YRGAGAVY	binds
YRARGYGV	binds
FRGADFGD	binds
YREGDAAD	no binding
YREGGFAA	binds
DREEGAGS	no binding
DREEGAGV	no binding
DREEGAGA	no binding
FRGEGSGV	binds
FRERGYGA	binds
YRARSDVF	no binding
YRARSAGF	binds
YRARSAGV	binds
YRARSAGA	binds
YRARSAGY	binds
VRERGSLY	binds
VREGDDAV	no binding
FRARSAAA	binds
FRARSAAV	binds
VRERGVGV	binds
FREGGALD	binds
SREAADAV	no binding
YREGGSLD	binds
YRGAGAGS	binds

Variant	non-specific binding call
YRGAGAGV	binds
YRGAGAGA	binds
YRGANVVY	binds
YREKGAAA	binds
YRARSSLY	binds
YRARSSLA	binds
VREGDYLS	binds
YRERGAGF	binds
YREGDFVD	binds
FRGEAVVY	binds
SREAASLA	no binding
FRGESSAD	binds
DREEGDWA	no binding
DREEGDWV	no binding
YRGEASVD	binds
FRERGAVV	binds
YRGANSVF	binds
YRGAAASS	no binding
YREKGAGD	binds
VRERSSVD	binds
YRERTAAV	binds
VRERGSAV	binds
VRERGSAD	binds
